Measurements as given in patent US20180155426A1 (SANFORD BURNHAM PREBYS MEDICAL DISCOVERY INSTITUTE, published 2018).

Columns and labels:
[1] = target: T1, huBTLA:huIgG recombinant fusion protein (human, UniProt Q7Z6A9 31-157, limits assumed); assay: ELISA screen against huBTLA:huIgG (with purified huIgG as counter-screen)
T1 construct: Produced in 293T cells; Used as the immunogen and as the ELISA screening antigen; not shown: human IgG portion
T1 sequence (looked up): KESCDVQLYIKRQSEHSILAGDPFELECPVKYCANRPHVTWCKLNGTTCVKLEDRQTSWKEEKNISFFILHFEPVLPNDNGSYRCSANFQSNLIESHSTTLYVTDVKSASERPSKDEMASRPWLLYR

[2] = target: T2, human BTLA expressed on cells (human, UniProt Q7Z6A9 31-289); assay: flow cytometry on MEF cells expressing huBTLA compared to non-BTLA expressing parental cells
T2 construct: whole, on cells; also called huBTLA; B and T lymphocyte attenuator
Description: The resulting hybridoma clones were screened by ELISA against huBTLA:huIgG and purified huIgG to identify those specific for huBTLA. A secondary screen was performed by binding to Beg+/+MEF cells expressing huBTLA and analyzing by flow cytometry compared to the non-BTLA expressing parental cells.

binding result [1]: binds
binding result [2]: binds
B1: anti-human BTLA monoclonal antibody clone 6F4 (antibody, V domains shown)
VH: EVQILETGGGLVKPGGSLRLSCATSGFNFNDYFVNWVRQAPGKGLQWVAQIRNKNYNPATYYAESLEGRVTISRDDSKSSVYLQVSSVRAEDTAIYYCSPISSYYHDGSLHYSDYWGQGVMVTVSS
VL: DIQMTQSPSVLSVSVGDRVTLNCKASHNIKNYLNWYQQKLGEAPKLLIYDTVNLQTGIPSRFSGSGSGTDFTVTISSLQPEDVATYFCFQYHSWPYTFGAGTKLELKR
notes: also called rat anti-hBLTA Mab Clone 6F4; Anti BTLA 6F4
